Data on 40 sequences can be found in the nanobody polyreactivity screen of Harvey et al. (2022).

This series can be described thus: yeast display, Sf9 membrane polyspecificity reagent, FACS + sequencing; frameworks hold sequencing errors. The essentials:
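Galactose-induced (36–48 hours) yeast carrying a synthetic nanobody display library were exposed to 10% biotinylated, detergent-solubilized Sf9 membrane reagent at 4 °C for 1 hour. FACS followed streptavidin microbead enrichment, using low and high (top ~1%) gates for expression (anti-HA) and reagent binding (streptavidin). Colony PCR, MiSeq 2 × 250 sequencing and CDR-length filtering followed. Labels for polyreactivity reflect the gate of origin.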
With “QVQLVESGGGLVQAGGSLRLSCAASGSTSRIYAMGWYRQAPGKERELVAAITRSGGSTYYADSVKGRFTISRDNAKNTVYLQMNSLKPEDTAVYYCAADYRSHSRYRYDKVDYWGQGTQVTVSS”, the “polyreactivity (PSR sort gate)” value is recorded as “high polyreactivity”.

As to “QVQLVESGGGLVQAGGSLRLSCAASGIIFYPNAMGWYRQAPGKERELVAAITSDGSTYYADSVKGRFTISRDNAKNTVYLQMNSLKPEDTAVYYCAAWDDYGYDYWGQGTQVTVSS”, the “polyreactivity (PSR sort gate)” value was “low polyreactivity”.

Consider “QVQLVESAGGLVQAGGSLRLSCAASGSIFHYYAMGWYRQAPGKERELVAAINSSGGSRTYYADSVKGRFTISRDKAKNTVYLQMNSLKPEDTAVYYCAADYRVVWRAYDYWGQGTQVTVSS”, for which the “polyreactivity (PSR sort gate)” value was “low polyreactivity”.

With “QVQLVESGGGLVQAGGSLRLSCAASGIIFAWNTMGWSRHPPGKERELVAAISSSGGSTYYADSVKGRFTISRDNAKNTVYLQMNSLKPEDTAVYYCAADGYHWIHEYDYWGQGTQVTVSS”, the “polyreactivity (PSR sort gate)” value is “low polyreactivity”.

Turning to “QVQLVESGGGLVQAGGSLRLSCAASGSTFRSNAMGWYRQAPGKEGELVAAISSRVGTTNYADSVKGRFTISRDNAKNTVYLQMNSLKPEDTAVYYCAAQGWRYYRTVVPMDYWGQGTQVTVSS”, the “polyreactivity (PSR sort gate)” value is listed as “low polyreactivity”.

For the sequence “QVQLVESGGGLVQAGGSLRLSCAASGSTFPKYAMGWYRQAPGKERELVATISSGTRTYYADSVKGRFTISRDNAKNTVYLQMNSLKPEDTAVYYCAARYQPRKGAHYGYWGQGTQVTVSS”, the “polyreactivity (PSR sort gate)” value is on record as “high polyreactivity”.

“QVQLVESGGGLVQAGGSLRLSCAASGIIFWYYAMGWYIQAPGKERELVAAFSSGGSTTYADSVKGRFTISRDNAKNTVYLQINSLKPEDTAVYYCAASVRGIRYDYWGQGTQVTVSS”: the “polyreactivity (PSR sort gate)” value is “low polyreactivity”.

With “QVQLVESGGGLLQAGGSLRLSCAASGRTFPYYAMGWYRQAPGKERELVAAISSSGGSTYYADSVKGRFTISRDNAKNTVYLEMNSLKPEDTEVYYCAAVYQFIKWGDSYEYWGQGTQVTVSS”, the “polyreactivity (PSR sort gate)” value is “high polyreactivity”.

For the sequence “QVQLVESGGGLVQAGGSLRLSCAASGNIFDLYARGWSRQAPGKERELVAAISASGGRTYYADSVKGRFTISRDNAKNTVYLQMNSLKPEDTAVYYCAAVASYGTDFYYWGQGTQVTVSS”, the “polyreactivity (PSR sort gate)” value was “high polyreactivity”.

With “QVQLVESGGGLVQAGGSLRLSCAASGSIFRLYAMGWYRPAPGKERELVATITSGGNTYADSVKGRFTISRDNAKNTVYLQMNSLKPEDTAVYYCAARYRYRGTQRPYVGYYRNDYWGQGTQVTVSS”, the “polyreactivity (PSR sort gate)” value is listed as “high polyreactivity”.

With “QFQLVESGGGLVQAGGSLRLSCAASGIIFLENAMGWYRQAPGKEREFVAAISRSGGITYYADSVKGRFTISRDNAKNTVYLQMNSLKPEDTAVYYCAAVGRDRYRHSPQPLYDYWGQGTQVTVSS”, the “polyreactivity (PSR sort gate)” value is recorded as “low polyreactivity”.

Regarding “QVQLVESGGGLVQAGGSLRLSCAASGSIFGYYAMGGYIQAPGYERELVAAISYSGGSTYYADSVKGRFTISRDHAKNTVYLQMNSLKPEDTAVYYCAAVRRRTRYGYRYDYWGQGTQVTVSS”, the “polyreactivity (PSR sort gate)” value is reported as “high polyreactivity”.

Turning to “QVQLVESGGGLDQAGGSLRLSCAASGSILDSYTMGWYRQAPGKERELVPAITSDGGSTYYADSVKGRFTISRDNAKNTVYLQMNSLKPEDTAVYYCAKLSRYYGFWYTPDFDYWGQGTQVTVSS”, the “polyreactivity (PSR sort gate)” value was “high polyreactivity”.

In the case of “QVQLVESGGGLVQAGGSLRLSCAASGRISRLNAMGWYRQAPGKERELVATISGRGGGTYYADSVKGRFTISRDNAKNTVYLQMNSLKPEDTAVYYCNRRWFTRYDYWGQGTQVTVSS”, the “polyreactivity (PSR sort gate)” value is recorded as “high polyreactivity”.

Take “QVQLVESGGGLVQAGGSLRLSCAASGRTFSYYAMGWYRQAPGKERELVAAISWRGGSTYYADSVKGRFTISRDNAKNTVYLQMNSLKPEDTAVYYCAALPRYALGEDYWGQGTQVTVSS”: the “polyreactivity (PSR sort gate)” value is recorded as “high polyreactivity”.

With “QVQLQESGGGLVQAGGSLRLSCAVSGTIFFPLDMGWYRQAPGREREYVAAIAEGTSTYYADSVKGRFTISRDNAKNTVYPQMYSLKPEDTAVYYCAAYRSTPQQFHYWGQGTQVTVSS”, the “polyreactivity (PSR sort gate)” value was “high polyreactivity”.

“QVQLVESGGGLVQAGGSLRLICAASGRTFRYYTMGWYRQAPGKERELVAAISWRGGSTYYADSVKGRFTISRDNAKNTVYLQMNSLKPEDTAVYYCAAKRPKRYNEGYYWGQGTQVTVSS”: the “polyreactivity (PSR sort gate)” value is listed as “high polyreactivity”.

With “QVQLVESGGGLVQAGGSLRLSCAASGRIFRSYAMGWYRQAPGKERELVASISWSGVSTSYADSVKGRFTISRDIAKNTVYLQMNSLKPEDTAVYFCAARSWYVGSGPFNYWGQGTQVTVSS”, the “polyreactivity (PSR sort gate)” value was “high polyreactivity”.

With “QVQLVESGGGLVQAGRSLRLSCAASGSTSERYDMGWYRQAPGKERELVATITWSGGDTHYADSVKGRFTISRDNAKNSVYLQLNSLKPEDTAVYYCAAEYTFVWGMWYDYWGQGTQVTVSS”, the “polyreactivity (PSR sort gate)” value is “low polyreactivity”.

As for “QEQLQESGGGQVQAGGSLLLSCAASGNIIPSYYMGWYRQAPGKERELVAAITYGTSTNYADSVKGRFTISRDNAKNTVFLQMISLKPVDTAVYYCAVDFNYGDPLVHWGQGTQVTVSS”, the “polyreactivity (PSR sort gate)” value is reported as “high polyreactivity”.

On to “QVQLVESGGALVQAGGRLRLSCAASGSTFYTYAMGWYRHAPGKEREIVAAISWSDDSTYYADSVKGRFTISRDNAKNTVYLQMTSLKPEDTAVYYCAAEWGQRGGGGYYYWGQGTQVTVSS”, for which the “polyreactivity (PSR sort gate)” value is “low polyreactivity”.

Consider “QVQLVESGGGLVQAGGSLRLSCAASGSIFWYYGMGWYRQAPGKERELVAAISSGGSTNYADSVKVRFAISRDNAKNTVYLQMNSLKPEDTAVYYCAVRFTFPRYPASYSRYYYWGQGTQVTVSS”, for which the “polyreactivity (PSR sort gate)” value is reported as “high polyreactivity”.

Take “QVQLVESGGGLVQAGGSLRLSCAASGFIFYSNPMGWYRQAPGKERELVAAITSGGSTYYADSVKGRFTISRDNAKNTVYLQMNSLKPEETAVYYCAAVVRVYFRGFTSYDYWGQGTQVTVSS”: the “polyreactivity (PSR sort gate)” value is “high polyreactivity”.

With “QVQLVESGGGLVQAGGSLRLSCAASGRTFAWYAMGRYRQAHGKERELVAVIRRGSGDTYYADSVKARFTISRDNAKNTVYLQMNSLKTEDTAVYYCAAEGRFSFYGGGRTKYSRYDYWGQGTQVTVSS”, the “polyreactivity (PSR sort gate)” value is “high polyreactivity”.

Consider “QVQLVESGGGLVQAGGSLRLSCDASGFTFRVYAMGWYRQAPGKEREFVASIRSNDGRTYYADSVKGRFTISRDNAKNTVYLQLNSLKPEDTAVYYCAARYSPRGKRYDYWGQGTQVTVSS”, for which the “polyreactivity (PSR sort gate)” value is “high polyreactivity”.

For “QVQLVESGGGLDAAGGSLRLSCAASGSTVIAYAMGWYRQAPGKEWELVAVMTSRGGRTYYADSVKGRFTISRDNAKNTVYLQMNSQKPEDTAVYYCATRSYRYLRSYDYWGQGTQVTVSS”, the “polyreactivity (PSR sort gate)” value was “high polyreactivity”.

“QVQLVESGGGLVQAGGSLRLSCAASGITFKYYTMAWYRQAPGKERELVAAISRSGGSTYYADSVKGRFTISRDNAKNTVYLQMMSLKPEDTAVYYCAAERGAYRGVTFTYGYWGQGTQVTLSS”: the “polyreactivity (PSR sort gate)” value is “high polyreactivity”.

“QVQLVESGGGLVQAGGSLRLSCAASGITFYPYTLGWYRQAPGKERELVASISTSGTNYADSVKGRFTISRDNAKNTVYLQMNSLKPEDTAVYYCAADIWSYYRSTHVDSWGQGTQVTVSS”: the “polyreactivity (PSR sort gate)” value is given as “low polyreactivity”.

For “QVQLLESGGGLVQAGGSLRLSCAASVFTFYGYAMGWYRQAPGKERELVAAISRRGGSTYYADSVKGRFTISRDNAKNTVYLQMNSLKPEDTAVYYCATDRAYYHSYGRFGYWGQGTQVTVSS”, the “polyreactivity (PSR sort gate)” value is “high polyreactivity”.

Take “QVQLVESGGGLVQAGGSLRLSCASSGGTFEVNAMGWYRQAPGKERELVAAIDTSDGSTYYADSVKGRFTISRDNAKNTVYFQMNSLKPEDTSVYYCAAERLFRFWYSAYERYDYWGQGTQVTVSS”: the “polyreactivity (PSR sort gate)” value was “low polyreactivity”.

Take “QVQLVESGGGLVQAGGSLRLSCAASGRTLDVNAMGWYRQAPGKEKELVAAIDWGVGTTYYADSVKGRFTISRDNAKNTVYLQMNSLKPEDTAVYYCSVDVYYSVYGYPVQYYYWGQGNQVTVSS”: the “polyreactivity (PSR sort gate)” value is “high polyreactivity”.

With “QVHLQESGGVQAGGSLPQSCAASGNISRSDVMGWYRQAPPKERELVATINNGTITYYADSVKGRFTISRDHAKNTVYLHMNSLKQEDTAVQYCAVVQSDTDSLYYWGQGTQVTVSS”, the “polyreactivity (PSR sort gate)” value is “low polyreactivity”.

For the sequence “QVQLVESGGGLVQAGGSLRLSCAASGFTLDWYAMGWYRQAPGKERELVAAIWSAGTTYYADSVKGRFTISRDNAKNTVYLQMNSLKPEDTAVYYCATVSDYDFGLYDYWGQGTQVTVSS”, the “polyreactivity (PSR sort gate)” value is listed as “low polyreactivity”.

“QVQLVESGGGLVQAGGSLRLSCADSGSIFNGNTMGWYRQAPGKERELVAAITSGGRTYYADSVKGRFTISRDNAKNTVYLQMNSLKPEDTAVYYCATRNPYYRSYYSYDYWGQGTQVTVSS”: the “polyreactivity (PSR sort gate)” value is reported as “high polyreactivity”.

Regarding “QVQLVESGGGLVQAGGSLRLSCAASGSTFYIYAMGWYRQAPGKERELVAAITSGGNTYYADSVKGRFTISRDNAKNTVYLQMNSLKPEDTAVYYCAAELYDRWSRMDYWGQGTQVTVSS”, the “polyreactivity (PSR sort gate)” value is given as “low polyreactivity”.

“QVQLVESGGGLVQAGGSLRLSCAASGIIFYRNAMGWYRQAPGKERELVAAISKGGGSTYYADSVKGRFTISRDNAKNTVYLQMNSLKPEDTAVYYCAAKAYTYYARIGFDYWGQGTQVTVSS”: the “polyreactivity (PSR sort gate)” value is on record as “high polyreactivity”.

On to “QVQLVESGGGLVQAGGSLRLSCAASGSTFSTYAMGWYRQAPGKERELVAAIRSGGSTYYADSVKGRFTISRDNAKNTVYLQMNSLKPEDTAVYYCAAKPRNYSYRYYYWGQGTLVTVSS”, for which the “polyreactivity (PSR sort gate)” value is listed as “high polyreactivity”.

As for “QVQLVESGGGLVQAGGSLRLSCAASGSTFAVYAMGWYRQAPGKERELVAAITRGDRTYYADSVKGRFTISRDNAKNTVYLQMNSLKPEDTAVYYCAAGYYRLWVRYDYWGQGTQVTVSS”, the “polyreactivity (PSR sort gate)” value was “low polyreactivity”.

“QVQLVESAGGIVQAGGSLRLSCAASGITFPGNAMGWYRPAPGKERELVAAIDCYGGSTYYADTVKGRFTISRDNAKNTVYLQLNSLKPEDTAVYYCATDEYFSYYGYFLDAYWGQGTQVTLSS”: the “polyreactivity (PSR sort gate)” value was “low polyreactivity”.

As for “QVQLVESGGGLVQAGGSLRLSCAASGRIFRYYAMGWYRQAAGKERELVAAIRYRSGGTSYADSVKGRFTISRDNAKNTVYLQMNSLKPEDTAVYYCNADKRLRGHGYDYWGQGTQVTVSS”, the “polyreactivity (PSR sort gate)” value is on record as “high polyreactivity”.
